According to patent publication US7629440:

Molecular target: murine GM-CSF receptor (murine) (UniProt Q00941)
Assay: cell-based or functional assay

Sequence of UniProt Q00941 (Q00941 30-388, chain 1 of 2): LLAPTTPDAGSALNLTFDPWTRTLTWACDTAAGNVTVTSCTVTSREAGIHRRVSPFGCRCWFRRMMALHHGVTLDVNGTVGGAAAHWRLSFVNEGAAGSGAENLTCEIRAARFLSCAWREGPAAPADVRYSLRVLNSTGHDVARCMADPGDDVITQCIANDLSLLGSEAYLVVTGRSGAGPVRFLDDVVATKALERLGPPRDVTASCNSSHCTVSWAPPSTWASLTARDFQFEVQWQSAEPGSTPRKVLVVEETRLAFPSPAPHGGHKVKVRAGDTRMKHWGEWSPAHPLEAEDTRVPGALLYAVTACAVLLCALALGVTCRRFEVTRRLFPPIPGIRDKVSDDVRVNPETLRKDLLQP
Sequence of UniProt Q00941 (P26955 23-896, chain 2 of 2, further chain): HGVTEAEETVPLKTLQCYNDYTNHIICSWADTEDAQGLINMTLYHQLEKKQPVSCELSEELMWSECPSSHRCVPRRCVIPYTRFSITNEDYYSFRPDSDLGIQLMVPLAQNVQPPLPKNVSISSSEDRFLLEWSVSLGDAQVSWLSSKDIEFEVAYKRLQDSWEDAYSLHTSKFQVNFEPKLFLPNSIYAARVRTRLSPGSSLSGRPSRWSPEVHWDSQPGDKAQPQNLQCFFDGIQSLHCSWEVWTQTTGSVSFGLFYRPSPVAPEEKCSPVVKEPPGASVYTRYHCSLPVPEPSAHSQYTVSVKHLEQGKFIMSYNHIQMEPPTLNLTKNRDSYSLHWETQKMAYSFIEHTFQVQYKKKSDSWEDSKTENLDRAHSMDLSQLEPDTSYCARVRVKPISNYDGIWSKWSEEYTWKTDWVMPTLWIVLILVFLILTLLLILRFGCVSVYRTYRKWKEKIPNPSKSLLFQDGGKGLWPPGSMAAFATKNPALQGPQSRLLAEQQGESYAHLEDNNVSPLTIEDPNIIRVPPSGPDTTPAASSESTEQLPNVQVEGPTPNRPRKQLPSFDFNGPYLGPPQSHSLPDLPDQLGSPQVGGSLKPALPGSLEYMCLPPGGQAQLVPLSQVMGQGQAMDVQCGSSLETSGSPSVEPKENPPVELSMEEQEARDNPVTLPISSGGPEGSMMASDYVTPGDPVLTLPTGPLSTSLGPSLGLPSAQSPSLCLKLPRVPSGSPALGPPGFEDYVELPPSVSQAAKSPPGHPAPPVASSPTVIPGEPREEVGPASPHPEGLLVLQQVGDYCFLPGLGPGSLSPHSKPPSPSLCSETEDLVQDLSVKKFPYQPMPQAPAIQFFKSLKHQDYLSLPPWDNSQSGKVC

proliferation of the GM-CSF dependent FDC-P1 cell line (Biotrak BrdU cell proliferation ELISA), 10 ng per well: 25%
Substance: murine GM-CSF fused to the S. cerevisiae Gas1 GPI modification signal sequence (GPI-GM-CSF) (from UniProt P01587 18-141; P22146 470-528) (other; the values are: proliferation increase vs soluble GM-CSF)
